Reference: US20130019326

Key:
[1] = system: FLAG-PPAR gamma, wild type
[2] = system: FLAG-PPAR gamma S273A
[3] = system: Rb protein (Cell Signaling Technology)
[4] = system: purified histone H1 (Millipore)

Substance | in vitro CDK kinase assay, phosphorylation of the substrate [1] | in vitro CDK kinase assay, phosphorylation of the substrate [2] | in vitro CDK5 kinase assay, phosphorylation of the substrate [3] | in vitro CDK kinase assay, phosphorylation of the substrate [4]
active cdk1/cdc2 kinase | Other members of the cdk protein family did not phosphorylate PPAR gamma |  |  | 
active cdk2/cyclin A kinase | Other members of the cdk protein family did not phosphorylate PPAR gamma |  |  | 
active cdk2/cyclin E kinase | Other members of the cdk protein family did not phosphorylate PPAR gamma |  |  | 
active cdk4/cyclin D1 kinase | Other members of the cdk protein family did not phosphorylate PPAR gamma |  |  | 
active cdk5/p35 kinase | The cdk5 site in murine PPAR gamma can be phosphorylated when incubated in vitro with cdk5 and its activating cofactor p35 | Mutation of serine 273 to alanine completely blocks phosphorylation of PPAR gamma | incubation with rosiglitazone does not inhibit the ability of cdk5 to phosphorylate the Rb protein | PPAR gamma is phosphorylated as efficiently under these conditions as is histone H1, a known substrate of the cdk5/p35 complex
